# According to PMC6152455:
# Columns and labels:
# [1] = biological target: Human CD16a/FcγRIIIa 158F (human) (UniProt P08637); assay: SPR
# [2] = biological target: Human CD16a/FcγRIIIa 158V (human); assay: SPR
# Sequence of Human CD16a/FcγRIIIa 158V (human) (P08637 17-208): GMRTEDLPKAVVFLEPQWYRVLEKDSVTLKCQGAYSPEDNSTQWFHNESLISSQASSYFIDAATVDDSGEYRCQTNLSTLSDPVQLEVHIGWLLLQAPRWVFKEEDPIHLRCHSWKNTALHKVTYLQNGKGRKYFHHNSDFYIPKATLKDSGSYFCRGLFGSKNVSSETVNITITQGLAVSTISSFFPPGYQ
Kd [1] [nM],Kd [2] [nM],Substance
2710,818,P-mab (in-house made pertuzumab biosimilar) (antibody)
1630,311,T-mab (in-house made trastuzumab biosimilar) (antibody)
